In article PMC8866402:

Biological target: N-His6-fortilin (human) (UniProt P13693)
Experiment: SPR; Biacore 3000, 25 °C, HBS-EPS (0.01 M HEPES, 0.5 M NaCl, 3 mM EDTA, 0.005% Tween 20, pH 7.4), 20 μL/min; forms of rh-fortilin amine-coupled to a CM5 chip; rh-TGF-β1 injected (0 to 200 nM; 100 nM for scouting)

N-His6-fortilin (human), sequence (P13693 whole entry): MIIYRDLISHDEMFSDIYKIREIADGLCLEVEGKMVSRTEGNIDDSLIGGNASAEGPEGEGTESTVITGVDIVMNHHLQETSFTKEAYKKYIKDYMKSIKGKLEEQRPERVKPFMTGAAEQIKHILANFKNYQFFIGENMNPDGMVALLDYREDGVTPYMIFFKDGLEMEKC

## recombinant human TGF-β1 produced in-house (ligand)
  Kd: 210 nM
